The assay addresses Gin4p kinase domain (codons 1-294), DBD fusion (S. cerevisiae) (UniProt Q12263). Nature of the assay: two-hybrid.
Sequence of UniProt Q12263 (Q12263 1-294): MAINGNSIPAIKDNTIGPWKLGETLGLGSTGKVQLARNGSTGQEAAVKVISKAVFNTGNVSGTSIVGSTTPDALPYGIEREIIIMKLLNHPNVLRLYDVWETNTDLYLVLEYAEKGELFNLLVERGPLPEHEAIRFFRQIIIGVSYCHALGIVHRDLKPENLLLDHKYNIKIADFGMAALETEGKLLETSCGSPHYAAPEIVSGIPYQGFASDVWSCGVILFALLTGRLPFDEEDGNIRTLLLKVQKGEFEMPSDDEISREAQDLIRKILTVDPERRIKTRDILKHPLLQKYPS

For the substance “COOH-terminal region of Cdc3p (the 101 COOH-terminal amino acids), AD fusion (domain or fragment)”, the units of β-galactosidase activity (units of β-galactosidase activity) turned out to be 727.

The record behind these values is publication PMC2148136.
